The assay addresses His-tagged SA2107 labelled with ATTO 488 (SA2107_(488)) (Staphylococcus aureus). The assay can be described thus: flow-induced dispersion analysis (FIDA); PreMix method; 20 nM SA2107_(488) as indicator, preincubated 10 min with 0-2 µM unlabelled ComK1 or ComK2 as analyte; PBS + Tween 0.1%; 25 °C; change of the apparent hydrodynamic radius; three independent experiments.

For the substance “His6-tagged ComK2 (recombinant, purified) (natural protein)”, the Kd is 420 nM.

(Values after publication PMC12491500.)
